The target in assay [1] is T1, CPI1 (synthetic construct, thioether N-17).
T1 chain: {CH2CO}-[dY]FWGNLHWYYEQFDSTC
Description: ATPase activity inhibition assay (NADH-coupled), no LTC4.

Assay [2] deals with T2, CPI1 (synthetic construct, thioether N-17).
T2 chain: {CH2CO}-[dY]FWGNLHWYYEQFDSTC
Description: ATPase activity inhibition assay (NADH-coupled), with 3.5 µM LTC4.

Bridges are numbered along the chain shown (N, C = ends). Where no end group is shown, it is not given here. [ ]: non-standard residue; d: D form.

B1: MRP1 (bMRP1) (protein)
chain: MALRDFCSVDGSDLFWEWNVTWNTSNPDFTKCFQNTVLVWVPCSYLWVCFPFYFLYLSHHDRGYIQMTHLNKAKTALGFLLWIVCWADLFYSFWERSMGKLLAPVFLVSPTLLGITMLLATFLIQIERRRGVQSSGIMLTFWLIALLCALAILRSKIMTALKEDARVDVFRDVTFYIYFSLVLIQLVLSCFSDRSPLFSETINDPNPCPESSASFLSRITFWWITGMMVQGYRQPLESTDLWSLNKEDTSEQVVPVLVKNWKKECAKSRKQPVKIVYSSKDPAKPKGSSKVDVNEEAEALIVKCPQKERDPSLFKVLYKTFGPYFLMSFLFKAVHDLMMFAGPEILKLLINFVNDKKAPEWQGYFYTALLFISACLQTLVLHQYFHICFVSGMRIKTAVIGAVYRKALVITNAARKSSTVGEIVNLMSVDAQRFMDLATYINMIWSAPLQVILALYLLWLNLGPSVLAGVAVMVLMVPLNAVMAMKTKTYQVAHMKSKDNRIKLMNEILNGIKVLKLYAWELAFKDKVLAIRQEELKVLKKSAYLAAVGTFTWVCTPFLVALSTFAVYVTVDENNILDAQKAFVSLALFNILRFPLNILPMVISSIVQASVSLKRLRVFLSHEDLDPDSIQRRPIKDAGATNSITVKNATFTWARNDPPTLHGITFSVPEGSLVAVVGQVGCGKSSLLSALLAEMDKVEGHVTVKGSVAYVPQQAWIQNISLRENILFGRQLQERYYKAVVEACALLPDLEILPSGDRTEIGEKGVNLSGGQKQRVSLARAVYCDSDVYLLDDPLSAVDAHVGKHIFENVIGPKGLLKNKTRLLVTHAISYLPQMDVIIVMSGGKISEMGSYQELLARDGAFAEFLRTYASAEQEQGQPEDGLAGVGGPGKEVKQMENGMLVTDTAGKQMQRQLSSSSSYSRDVSQHHTSTAELRKPGPTEETWKLVEADKAQTGQVKLSVYWDYMKAIGLFISFLSIFLFLCNHVASLVSNYWLSLWTDDPIVNGTQEHTQVRLSVYGALGISQGITVFGYSMAVSIGGIFASRRLHLDLLHNVLRSPISFFERTPSGNLVNRFSKELDTVDSMIPQVIKMFMGSLFNVIGACIIILLATPMAAVIIPPLGLIYFFVQRFYVASSRQLKRLESVSRSPVYSHFNETLLGVSVIRAFEEQERFIRQSDLKVDENQKAYYPSIVANRWLAVRLECVGNCIVLFASLFAVISRHSLSAGLVGLSVSYSLQVTTYLNWLVRMSSEMETNIVAVERLKEYSETEKEAPWQIQDMAPPKDWPQVGRVEFRDYGLRYREDLDLVLKHINVTIDGGEKVGIVGRTGAGKSSLTLGLFRIKESAEGEIIIDDINIAKIGLHDLRFKITIIPQDPVLFSGSLRMNLDPFSQYSDEEVWTSLELAHLKGFVSALPDKLNHECAEGGENLSVGQRQLVCLARALLRKTKILVLDEATAAVDLETDDLIQSTIRTQFDDCTVLTIAHRLNTIMDYTRVIVLDKGEIQEWGSPSDLLQQRGLFYSMAKDSGLV
Take B1: the Ki in assay [1] came out at 0.07 µM; in assay [2], 0.095 µM.

In general, Ki refers to a measure of affinity in units of concentration, obtained from inhibition or displacement.

(Values after PMC10089224 (2023).)
